# Laboratory results as given in patent US20240400677A1 (ELECTRA THERAPEUTICS, published 2024).
# T1: cynomolgus monkey SIRPα on CHO cells (cynomolgus monkey, UniProt A0A2K5VYQ9 31-507)
# T1 construct: whole, on cells; also called Cyno SIRPα CHO
# T1 sequence: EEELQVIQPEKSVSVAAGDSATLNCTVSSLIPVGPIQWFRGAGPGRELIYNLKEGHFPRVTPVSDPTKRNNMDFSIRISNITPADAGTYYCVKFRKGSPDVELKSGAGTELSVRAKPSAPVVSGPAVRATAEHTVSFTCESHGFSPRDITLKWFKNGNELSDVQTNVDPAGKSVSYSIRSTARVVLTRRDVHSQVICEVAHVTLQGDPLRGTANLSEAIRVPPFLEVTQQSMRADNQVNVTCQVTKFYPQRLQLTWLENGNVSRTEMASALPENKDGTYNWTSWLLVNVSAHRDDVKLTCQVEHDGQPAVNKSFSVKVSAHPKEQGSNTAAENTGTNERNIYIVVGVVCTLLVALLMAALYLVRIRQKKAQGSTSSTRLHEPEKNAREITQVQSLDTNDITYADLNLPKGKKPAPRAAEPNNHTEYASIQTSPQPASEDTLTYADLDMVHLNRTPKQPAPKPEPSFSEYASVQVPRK
# T2: Cynomolgus Monkey SIRPγ (plate-coated extracellular domain)
# T2 construct: also called Cyno SIRPγ
# T2 extracellular domain: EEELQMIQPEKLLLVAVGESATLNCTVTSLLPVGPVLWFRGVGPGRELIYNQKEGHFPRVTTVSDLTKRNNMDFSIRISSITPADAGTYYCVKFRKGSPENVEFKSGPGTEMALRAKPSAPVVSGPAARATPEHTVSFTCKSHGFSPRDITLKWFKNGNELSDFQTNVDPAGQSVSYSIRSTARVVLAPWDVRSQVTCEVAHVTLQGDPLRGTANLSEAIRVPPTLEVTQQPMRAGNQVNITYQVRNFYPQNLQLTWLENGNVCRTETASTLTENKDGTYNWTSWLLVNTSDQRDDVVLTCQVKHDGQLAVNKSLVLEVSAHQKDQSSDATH
# T3: cynomolgus monkey SIRPγ on CHO cells (cynomolgus monkey, UniProt Q9P1W8 29-386 (human entry))
# T3 construct: also called Cyno SIRPγ CHO
# T3 chain: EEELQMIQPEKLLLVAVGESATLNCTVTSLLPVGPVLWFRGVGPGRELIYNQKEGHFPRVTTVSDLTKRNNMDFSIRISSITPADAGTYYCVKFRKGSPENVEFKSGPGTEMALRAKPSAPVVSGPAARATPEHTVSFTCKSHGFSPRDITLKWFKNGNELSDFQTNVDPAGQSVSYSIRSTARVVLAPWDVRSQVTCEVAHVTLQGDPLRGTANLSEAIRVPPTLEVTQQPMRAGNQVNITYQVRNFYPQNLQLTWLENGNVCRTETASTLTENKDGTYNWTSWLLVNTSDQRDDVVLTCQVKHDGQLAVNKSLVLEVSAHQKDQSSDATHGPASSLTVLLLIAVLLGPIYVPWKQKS
# T4: cynomolgus monkey SIRPγ-His monomer protein (cynomolgus monkey, UniProt Q9P1W8 29-359 (human entry), limits assumed)
# T4 construct: also called Cyno SIRPγ; Cyno SIRPγ-His
# T4 chain: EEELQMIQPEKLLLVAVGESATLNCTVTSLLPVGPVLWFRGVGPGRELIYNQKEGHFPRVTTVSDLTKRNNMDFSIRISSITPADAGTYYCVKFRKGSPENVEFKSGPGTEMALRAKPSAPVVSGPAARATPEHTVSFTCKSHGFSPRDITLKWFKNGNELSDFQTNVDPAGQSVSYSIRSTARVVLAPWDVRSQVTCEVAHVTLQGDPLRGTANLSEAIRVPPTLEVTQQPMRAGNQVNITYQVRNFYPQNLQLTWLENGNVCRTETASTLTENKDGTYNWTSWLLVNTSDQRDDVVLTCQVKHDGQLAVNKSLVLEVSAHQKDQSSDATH
# Assays:
# [1] = target: T1, cynomolgus monkey SIRPα on CHO cells; experiment: flow cytometry, CHO transfectants, anti-human IgG
# Method: (§1) Selected antibodies were tested for binding to stably transfected human SIRPγ, SIRPαV1, or SIRPβ1 (co-transfected with DAP12) Chinese hamster ovary (CHO) cells via flow cytometry. A titration of select antibodies was added to the cells and detected using a fluorescently labelled secondary anti-rat IgG antibody or anti-human IgG antibody. Graphs depict the median fluorescence intensity (MFI) at each concentration. FIGS. 5A and 5G show the binding curves of select antibodies to human SIRPγ, cynomolgus monkey SIRPγ, human SIRPα, cynomolgus monkey SIRPα, human SIRPβ1, or cynomolgus monkey SIRPβl-expressing CHO cells detected using an anti-rat IgG antibody. FIGS. 5B-5F and 5H-5L show the binding curves of select antibodies to human SIRPγ, cynomolgus monkey SIRPγ, human SIRPα, cynomolgus monkey SIRPα, human SIRPβ1, or cynomolgus monkey SIRPβ1-expressing CHO cells detected using an anti-human IgG antibody. […] For select antibodies, each myc-tagged SIRPγ scFv antibody as crude PPE was incubated with each of the SIRP-expressing cell lines stated above along with the parental CHO-K1 cell line. […] Fold change value <2.0 is considered a non-binder.
# [2] = target: T5, human SIRPβ1 on CHO cells (co-transfected with DAP12) (human, UniProt O00241 30-398); experiment: flow cytometry, CHO transfectants, anti-human IgG
# T5 construct: whole, on cells; co-transfected with DAP12; also called Human SIRPβ1 CHO
# Method: as §1
# [3] = target: T2, Cynomolgus Monkey SIRPγ (plate-coated …); experiment: ELISA, coated SIRP ECD (2 µg/mL), anti-human IgG, luminescence
# Method: (§2) Selected hybridoma supernatants of Example 1 were tested for binding to human SIRPγ, cynomolgus monkey SIRPγ, human SIRPα V1, cynomolgus monkey SIRPα, human SIRPβ1, and cynomolgus monkey SIRPβ1 by enzyme-linked immunosorbent assay (ELISA). Briefly, 2 μg/mL of the extracellular domain of SIRP protein was coated onto high protein-binding plates and blocked. Undiluted supernatants were added to coated plates. The antibodies were detected by an anti-rat antibody and a chemiluminescent substrate. […] The data depict the relative luminescence units read by a plate-reader capable of detecting chemiluminescence.
# (§3) FIGS. 2A-2G show binding curves of SIRPγ antibodies and human Fc isotype controls to human SIRPγ, cynomolgus monkey SIRPγ, human SIRPα V1, human SIRPα V2, and human SIRPβ1 by ELISA. […] Isotype control 2 was an unrelated human IgG1 antibody with irrelevant CDRs with no modifications in the Fc region. DNA was transiently transfected into Expi293F cells for 5 days. Antibodies were purified by Protein A from cell supernatants and analyzed in a titration via ELISA as previously described in FIG. 1 using an anti-human IgG antibody as the detection antibody.
# [4] = target: T6, extracellular binding domain of human SIRPγ (plate-coated) (human, UniProt Q9P1W8 29-360); experiment: as above
# T6 construct: also called hSIRPγ
# Method: as §2, §3
# [5] = target: T5, human SIRPβ1 on CHO cells …; experiment: flow cytometry
# [6] = target: T3, cynomolgus monkey SIRPγ on CHO cells; experiment: flow cytometry, myc-scFv PPE
# Method: as §1
# [7] = target: T7, human SIRPγ on stably transfected CHO cells (human, UniProt Q9P1W8 29-387); experiment: flow cytometry, myc-scFv PPE
# T7 construct: also called Human SIRPγ CHO
# Method: as §1
# [8] = target: T4, cynomolgus monkey SIRPγ-His monomer …; experiment: BLI Octet, captured scFv PPE, cyno SIRP
# Method: Unique binders were further tested for binding to human SIRPαV1, human SIRPαV2, and human SIRPβ1. Briefly, biotinylated anti-V5 was immobilized onto streptavidin biosensors. Each V5-tagged SIRPγ scFv antibody as crude PPE was captured by the anti-V5 antibody. SIRP-His monomer protein at 500 nM was exposed to the biosensor for binding to SIRP scFv. The biosensors were then exposed to wash buffer to measure off-rate kinetics. The resulting association and dissociation kinetics (kdis) was analyzed. […] Similarly, cross-reactivity to cynomolgus monkey SIRPγ, cynomolgus monkey SIRPα, and cynomolgus monkey SIRPβ1 were tested.
# [9] = target: T8, human SIRPγ-His monomer protein (human, UniProt Q9P1W8 29-360); experiment: BLI Octet, V5-scFv PPE captured, SIRP-His 500 nM
# T8 construct: also called hSIRPγ
# T8 sequence (Q9P1W8 29-360 limits assumed): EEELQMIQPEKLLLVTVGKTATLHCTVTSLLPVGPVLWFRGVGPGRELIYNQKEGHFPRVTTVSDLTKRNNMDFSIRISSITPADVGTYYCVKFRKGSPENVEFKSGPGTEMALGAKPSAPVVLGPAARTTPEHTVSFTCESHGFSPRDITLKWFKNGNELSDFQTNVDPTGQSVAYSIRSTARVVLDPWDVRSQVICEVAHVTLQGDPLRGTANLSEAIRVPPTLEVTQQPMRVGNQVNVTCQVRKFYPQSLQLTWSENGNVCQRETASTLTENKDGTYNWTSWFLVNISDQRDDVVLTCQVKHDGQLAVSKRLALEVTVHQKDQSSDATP
# T5 sequence (O00241 30-398): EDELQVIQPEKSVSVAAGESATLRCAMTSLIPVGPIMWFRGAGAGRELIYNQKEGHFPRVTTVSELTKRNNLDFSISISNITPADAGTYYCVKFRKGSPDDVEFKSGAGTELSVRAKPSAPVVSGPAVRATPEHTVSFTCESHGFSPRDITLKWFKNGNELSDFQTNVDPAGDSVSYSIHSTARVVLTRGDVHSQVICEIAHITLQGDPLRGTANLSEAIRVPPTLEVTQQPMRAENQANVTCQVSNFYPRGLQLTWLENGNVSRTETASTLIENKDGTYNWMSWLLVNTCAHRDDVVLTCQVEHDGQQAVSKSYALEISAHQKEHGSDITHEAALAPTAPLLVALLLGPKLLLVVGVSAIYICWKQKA
# T6 sequence (Q9P1W8 29-360 limits assumed): as the sequence (Q9P1W8 29-360 limits assumed) above
# T7 sequence (Q9P1W8 29-387 limits assumed): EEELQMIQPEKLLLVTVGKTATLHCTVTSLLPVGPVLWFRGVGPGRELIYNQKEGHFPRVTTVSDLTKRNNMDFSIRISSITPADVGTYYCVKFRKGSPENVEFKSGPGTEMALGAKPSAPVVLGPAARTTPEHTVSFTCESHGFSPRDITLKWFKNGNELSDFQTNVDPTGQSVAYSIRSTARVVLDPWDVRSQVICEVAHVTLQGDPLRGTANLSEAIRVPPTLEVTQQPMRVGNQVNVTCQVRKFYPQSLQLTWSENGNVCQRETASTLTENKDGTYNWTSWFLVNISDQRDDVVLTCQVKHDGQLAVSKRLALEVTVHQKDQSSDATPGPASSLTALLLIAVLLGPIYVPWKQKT
binding result [1],binding result [2],EC50 (read off the curve) [3],EC50 (read off the curve) [4],binding result [5],MFI fold change over parental CHO [6],MFI fold change over parental CHO [7],binding result [8],kdis [9],Binder
no binding (tested: about 20 µg/mL),no binding (tested: about 20 µg/mL),~1 µg/mL,~0.5 µg/mL,,,,,,"Antibody 68 (antibody, V domains shown) VH: QVQLVQSGAEVKKPGASVKVSCKASGYTFTSYYMYWVRQAPGQGLEWMGWINPNSGNTGYAQKFQGRVTMTRDTSTSTVYMELSSLRSEDTAVYYCAKDRRRGVGLAAAGTSAFDIWGQGTMVTVSS VL: DIQMTQSPSSLSASVGDRVTITCRASQSISNWLAWYQQKPGKAPKLLIYAASSLQSGVPSRFSGSGSGTDFTLTISSLQPEDFATYYCQQSYSTPYTFGQGTKLEIK"
,,,,no binding (tested: fold change <2.0),16 fold,13.1 fold,binds,> 0.01 s⁻¹,"Antibody 46 (scFv, V domains shown, scFv in crude PPE, V5/myc-tagged) VH: QVQLVQSGAEVKKPGASVKVSCKASGYTFSSYAISWVRQAPGQGLEWMGWMDPNSGNTGYAQKFQGRVTMTRDTSTSTVYMELSSLRSEDTAVYYCARESSYYYDSSGYYPGWYFDLWGRGTLVTVSS VL: DIQMTQSPSSLSASVGDRVTITCQASQDISNYLNWYQQKPGKAPKLLIYAASTLQTGVPSRFSGSGSGTDFTLTISSLQPEDFATYYCQQSYSTPWTFGPGTKVDIK"
no binding (tested: about 20 µg/mL),no binding (tested: about 20 µg/mL),~0.3 µg/mL,~0.2 µg/mL,,,,,,"Antibody 72 (antibody, V domains shown) VH: QVQLVQSGAEVKKPGASVKVSCKASGYTFTDNYLHWVRQAPGQGLEWMGIIETSGGSTDYAQKFQGRVTMTRDTSTSTVYMELSSLRSEDTAVYYCARSFGGYSYDDAFDIWGQGTTVTVSS VL: DIQMTQSPSSLSASVGDRVTITCQASQGISNYLNWYQQKPGKAPKLLIYAASSLQSGVPSRFSGSGSGTDFTLTISSLQPEDFATYYCQQSYSSPYTFGQGTKVEIK"
,,,,no binding (tested: fold change <2.0),5.94 fold,10.7 fold,binds,0.001 to 0.01 s⁻¹,"Antibody 12 (scFv, V domains shown, scFv in crude PPE, V5/myc-tagged) VH: QVQLVQSGAEVKKPGASVKVSCKASGGTFGSYGINWVRQAPGQGLEWMGWISAYNGNTNYAQKLQGRVTMTRDTSTSTVYMELSSLRSEDTAVYYCARDGIDYGGNSGYDYWGQGTLVTVSS VL: DIQMTQSPSSLSASVGDRVTITCRASQNIRNYLNWYQQKPGKAPKLLIYAASSLQGGVPSRFSGSGSGTDFTLTISSLQPEDFATYYCQQSYNGPYTFGQGTKVEIK"
,,,,no binding (tested: fold change <2.0),6.18 fold,3.98 fold,binds,0.001 to 0.01 s⁻¹,"Antibody 11 (scFv, V domains shown, scFv in crude PPE, V5/myc-tagged) VH: QVQLVQSGAEVKKPGASVKVSCKASGYTFTSYDINWVRQAPGQGLEWMGWMNPNSGNTGYAQKFQGRVTMTRDTSTSTVYMELSSLRSEDTAVYYCAKGAVAGTYYYYGMDVWGQGTTVTVSS VL: DIQMTQSPSSLSASVGDRVTITCRASQTINNYLNWYQQKPGKAPKLLIYDASNLETGVPSRFSGSGSGTDFTLTISSLQPEDFATYYCQQANSFPLTFGQGTKVEIK"

# The remaining lines, values behind:
Binder,binding result [1],binding result [2],EC50 (read off the curve) [3],EC50 (read off the curve) [4],binding result [5],MFI fold change over parental CHO [6],MFI fold change over parental CHO [7],binding result [8],kdis [9]
"Antibody 59 (antibody, V domains shown) VH: QVQLVQSGAEVKKPGASVKVSCKASGYTFTSYDINWVRQAPGQGLEWMGWMNPNSGNTGYAQKFQGRVTMTRDTSTSTVYMELSSLRSEDTAVYYCARESYAYCSSTSCYDAFDIWGQGTMVTVSS VL: not shown",no binding (tested: about 20 µg/mL),no binding (tested: about 20 µg/mL),~0.3 µg/mL,~0.08 µg/mL,,,,,
"Antibody 63 (antibody, V domains shown) VH: QVQLVQSGAEVKKPGASVKVSCKASGYTFTGYYMHWVRQAPGQGLEWMGIINPSGGSTNYAQKFQGRVTMTRDTSTSTVYMELSSLRSEDTAVYYCARGPIGYGMDVWGQGTLVTVSS VL: DIQMTQSPSSLSASVGDRVTITCRASQGIGNDLGWYQQKPGKAPKLLIYAASNLETGVPSRFSGSGSGTDFTLTISSLQPEDFATYYCLQHHSYPFTFGQGTKLEIK",no binding (tested: about 20 µg/mL),no binding (tested: about 20 µg/mL),~1 µg/mL,~0.8 µg/mL,,,,,
"Antibody 70 (antibody, V domains shown) VH: QVQLVQSGAEVKKPGASVKVSCKASGYTFSNYYMHWVRQAPGQGLEWMGWMNPNSGNTGYAQKFQGRVTMTRDTSTSTVYMELSSLRSEDTAVYYCARASMYSSSGFDYWGQGTLVTVSS VL: DIVMTQSPLSLPVTPGEPASISCRSSQSLLHSNGYNYLDWYLQKPGQSPQLLIYLASTRAPGVPDRFSGSGSGTDFTLKISRVEAEDVGVYYCMQGSHWPPSFGQGTRLEIK",no binding (tested: about 20 µg/mL),no binding (tested: about 20 µg/mL),~0.05 µg/mL,~0.03 µg/mL,,,,,
